Assay results as given in patent publication US20240247080A1, “GLP1/GIP/NPY2 RECEPTOR TRIPLE AGONISTS” (Boehringer Ingelheim International GmbH, priority 2022, published 2024).
Positions count from the first letter of the chain named. Starred links: 1 amine or outer side, 2 acyl side, 3 side chain; linkers in the order of their positions; H or OH if unused. Non-standard residues stand in square brackets, D forms with d. Groups on a side chain read outwards from the residue. No end group written: not given here. *: point of attachment. C20 diacid = O=C(O)CCCCCCCCCCCCCCCCCCC(=O)*; γGlu = O=C(O)[C@H](CCC(=O)[*:2])N[*:1]; εLys = N[C@@H](CCCCN[*:1])C(=O)[*:2]; AEEA = NCCOCCOCC(=O)O; Aib = CC(C)(N)C(=O)O

B1: Compound 221 (peptide)
peptide: YXEGTFTSDYSIXLEKQAQXAFVEWLIKGGPSSGASLRHYYNWLTRQRY
modifications: Aib at 2, 13, 20; K28 side chain carries C20DA-gGlu-gGlu-gGlu-gGlu-gGlu-gGlu-eLys; C-terminal amide
B2: Compound 222 (peptide)
peptide: B1 peptide with S33E
modifications: Aib at 2, 13, 20; NMeQ (N-methyl-L-glutamine) at 47; K28 side chain carries C20DA-gGlu-gGlu-gGlu-gGlu-gGlu-gGlu-eLys; C-terminal amide
B3: Compound 233 (peptide)
peptide: B1 peptide with S33E, G34P
modifications: Aib at 2, 13, 20; K28 side chain carries C20DA-gGlu-gGlu-gGlu-gGlu-gGlu-gGlu-eLys; C-terminal amide
B4: Compound 234 (peptide)
peptide: B1 peptide with Y10L, S33E
modifications: Aib at 2, 13, 20; K28 side chain carries C20DA-gGlu-gGlu-gGlu-gGlu-Glu-gGlu-eLys (so in the source); C-terminal amide
B5: Compound 232 (peptide)
peptide: B1 peptide with S33Y
modifications: Aib at 2, 13, 20; K28 side chain carries C20DA-gGlu-gGlu-gGlu-gGlu-gGlu-gGlu-eLys; C-terminal amide
B6: Compound 228 (peptide)
peptide: B1 peptide with E24Q, S33E
modifications: Aib at 2, 13, 20; K28 side chain carries C20DA-gGlu-gGlu-gGlu-gGlu-gGlu-OEG-OEG; C-terminal amide
B7: Compound 229 (peptide)
peptide: B1 peptide
modifications: Aib at 2, 13, 20; K28 side chain carries C20DA-gGlu-gGlu-gGlu-gGlu-gGlu-OEG-OEG; C-terminal amide
B8: Compound 227 (peptide)
peptide: B1 peptide with S33E, A35Q
modifications: Aib at 2, 13, 20; K28 side chain carries C20DA-gGlu-gGlu-gGlu-gGlu-gGlu-gGlu-eLys; C-terminal amide

Columns and labels:
Assay in all cases: cell-based or functional assay
GIP receptor = biological target: T1, GIP receptor (human (printed as hGIPR), UniProt P48546 22-466)
T1 sequence (looked up): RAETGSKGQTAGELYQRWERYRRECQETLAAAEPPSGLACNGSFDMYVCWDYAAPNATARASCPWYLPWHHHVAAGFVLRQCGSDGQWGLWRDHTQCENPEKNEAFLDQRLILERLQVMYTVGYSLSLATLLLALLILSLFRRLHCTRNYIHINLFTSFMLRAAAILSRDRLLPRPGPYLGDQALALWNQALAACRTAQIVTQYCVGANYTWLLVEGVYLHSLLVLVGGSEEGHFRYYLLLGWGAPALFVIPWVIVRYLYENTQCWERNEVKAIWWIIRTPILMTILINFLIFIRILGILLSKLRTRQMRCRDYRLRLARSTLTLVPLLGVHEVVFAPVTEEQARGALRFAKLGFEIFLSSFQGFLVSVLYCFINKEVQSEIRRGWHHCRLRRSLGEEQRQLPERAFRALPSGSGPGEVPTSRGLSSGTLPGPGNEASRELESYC

GLP-1 receptor = GLP-1 receptor (human (printed as hGLP1R), UniProt P43220 24-463)
NPY2 receptor = biological target: T2, NPY2 receptor (human (printed as hNPY2R), UniProt P49146 1-381)
T2 sequence (looked up): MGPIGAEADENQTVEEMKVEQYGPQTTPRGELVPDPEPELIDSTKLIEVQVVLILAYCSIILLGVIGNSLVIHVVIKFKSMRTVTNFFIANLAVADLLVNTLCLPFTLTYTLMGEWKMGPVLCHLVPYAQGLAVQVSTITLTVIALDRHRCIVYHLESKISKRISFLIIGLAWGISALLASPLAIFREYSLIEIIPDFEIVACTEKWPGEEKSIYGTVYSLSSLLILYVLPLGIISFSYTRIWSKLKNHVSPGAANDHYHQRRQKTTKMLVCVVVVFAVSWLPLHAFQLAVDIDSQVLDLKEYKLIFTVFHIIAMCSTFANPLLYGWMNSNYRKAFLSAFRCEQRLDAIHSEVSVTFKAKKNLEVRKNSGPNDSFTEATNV

Row | Binder | EC50 hGIPR 0.5% hP (CreLuc) (GIP receptor) | EC50 hGIPR 100% hP (CreLuc) (GIP receptor) | EC50 hGLP1R 0.5% hP (CreLuc) (GLP-1 receptor) | EC50 hGLP1R 100% hP (CreLuc) (GLP-1 receptor) | EC50 hNPY2R 0.5% hP (CreLuc) (NPY2 receptor) | EC50 hNPY2R 100% hP (CreLuc) (NPY2 receptor)
1 | Y[Aib]EGTFTSDYSI[Aib]LEKQAQ[Aib]AFVQWLIK([εLys-γGlu-γGlu-γGlu-γGlu-γGlu-γGlu-γGlu-C20 diacid])GGPSEGASLRHYYNWLTRQRY-NH2 (also: TFA salt) [Compound 224] | 0.43 nM | 1.35 nM | 0.13 nM | 3.24 nM | 10.6 nM | 31.6 nM
2 | Y[Aib]EGTFTSDYSI[Aib]LEKQAQ[Aib]AFVEWLIK([γGlu-γGlu-γGlu-γGlu-γGlu-γGlu-C20 diacid])GGPSSGASLRHYYNWLTRQRY-NH2 (also: TFA salt) [Compound 235] | 0.34 nM | 2.81 nM | 0.12 nM | 4.64 nM | 13.9 nM | 77.7 nM
3 | B1 | 0.14 nM | 0.92 nM | 0.11 nM | 2.23 nM | 12.4 nM | 49.3 nM
4 | B2 | 0.19 nM | 1.85 nM | 0.24 nM | 4.43 nM | 13.3 nM | 41.6 nM
5 | B3 | 0.08 nM | 0.75 nM | 0.17 nM | 1.7 nM | 12.6 nM | 27.1 nM
6 | B4 | 0.74 nM | 3.27 nM | 0.35 nM | 2.66 nM | 25.1 nM | 48.1 nM
7 | B5 | 0.19 nM | 1.64 nM | 0.21 nM | 4.88 nM | 15.3 nM | 36.8 nM
8 | B6 | 0.23 nM | 1.52 nM | 0.12 nM | 4.18 nM | 9.6 nM | 30.1 nM
9 | B7 | 0.22 nM | 1.42 nM | 0.1 nM | 3.31 nM | 10.8 nM | 27.2 nM
10 | B8 | 0.06 nM | 1.23 nM | 0.13 nM | 3.07 nM | 10.2 nM | 44.2 nM
11 | Y[Aib]EGTFTSDYSI[Aib]LEKQAQ[Aib]AFIEWLIK([AEEA-AEEA-γGlu-γGlu-γGlu-γGlu-C20 diacid])GGPSEGASLRHYYNWLTRQRY-NH2 (also: TFA salt) [Compound 231] | 0.33 nM | 1.43 nM | 0.14 nM | 3.28 nM | 19.2 nM | 53 nM
12 | Y[Aib]EGTFTSDYSI[Aib]LEKQAQ[Aib]AFVEWLIK([εLys-γGlu-γGlu-γGlu-γGlu-γGlu-γGlu-γGlu-C20 diacid])GGPSSGASLRHYYNWLTRQRY-NH2 (also: TFA salt) [Compound 225] | 0.28 nM | 1.23 nM | 0.12 nM | 1.93 nM | 14.9 nM | 50.2 nM
13 | Y[Aib]EGTFTSDYSI[Aib]LEKQAQ[Aib]AFVEWLIK([AEEA-AEEA-γGlu-γGlu-γGlu-γGlu-C20 diacid])GGPSEPASLRHYYNWLTRQRY-NH2 (also: TFA salt) [Compound 226] | 0.43 nM | 2.6 nM | 0.24 nM | 7.6 nM | 11.4 nM | 46.2 nM
14 | Y[Aib]EGTFTSDYSI[Aib]LEKQAQ[Aib]AFVEWLIK([εLys-γGlu-γGlu-γGlu-γGlu-γGlu-C20 diacid])GGPEEGASLRHYYNWLTRQRY-NH2 (also: TFA salt) [Compound 230] | 0.28 nM | 1.43 nM | 0.29 nM | 8.23 nM | 15.4 nM | 59.1 nM
15 | Y[Aib]EGTFTSDYSI[Aib]LEKQAQ[Aib]AFVQWLIK([γGlu-γGlu-γGlu-γGlu-γGlu-γGlu-C20 diacid])GGPSEGASLRHYYNWLTRQRY-NH2 (also: TFA salt) [Compound 223] | 0.39 nM | 3.16 nM | 0.18 nM | 4.39 nM | 13.2 nM | 57.5 nM
